Among the data in US20260284207 (published 2026) are binding result and Kd values, retold here.

Common to all, as to assay: FP
Test [1] deals with T1, FBXO31/SKP1 complex (wild type) (human, UniProt Q5XUX0).
Test [2] concerns the target T1, FBXO31/SKP1 complex (wild type). The source holds these as a separate data set.
The next test concerns the target FBXO31 D334N/SKP1 (human, UniProt Q5XUX0).

Where “and” joins values, the source holds several entries; their conditions need not be identical. Equal entries are not always repeated. FL = fluorescein (N-terminal fluorescent label)

T1 sequence (Q5XUX0 whole entry, chain 1 of 2): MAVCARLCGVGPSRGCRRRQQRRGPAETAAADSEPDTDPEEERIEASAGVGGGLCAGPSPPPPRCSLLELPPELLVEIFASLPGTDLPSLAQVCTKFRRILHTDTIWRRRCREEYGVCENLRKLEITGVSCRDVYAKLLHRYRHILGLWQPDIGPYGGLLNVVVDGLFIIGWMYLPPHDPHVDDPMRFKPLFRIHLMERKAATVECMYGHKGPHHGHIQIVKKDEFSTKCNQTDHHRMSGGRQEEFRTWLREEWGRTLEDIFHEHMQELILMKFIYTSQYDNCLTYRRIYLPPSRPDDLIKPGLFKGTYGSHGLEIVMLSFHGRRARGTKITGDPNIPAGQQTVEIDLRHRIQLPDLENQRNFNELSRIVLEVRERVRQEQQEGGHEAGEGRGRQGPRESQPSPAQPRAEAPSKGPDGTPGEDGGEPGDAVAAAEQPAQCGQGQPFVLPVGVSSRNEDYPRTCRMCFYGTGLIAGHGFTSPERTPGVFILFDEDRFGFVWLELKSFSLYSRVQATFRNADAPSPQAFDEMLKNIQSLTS
T1 sequence (chain, as listed by the source, chain 2 of 2): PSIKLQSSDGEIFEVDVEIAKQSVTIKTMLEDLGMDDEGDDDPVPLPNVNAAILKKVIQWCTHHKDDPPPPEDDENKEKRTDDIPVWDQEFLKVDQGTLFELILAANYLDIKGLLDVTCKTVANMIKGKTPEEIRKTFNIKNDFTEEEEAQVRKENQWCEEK
FBXO31 D334N/SKP1, sequence (Q5XUX0 whole entry D334N, chain 1 of 2): as the sequence (Q5XUX0 whole entry, chain 1 of 2) above, with D334N counted along it
FBXO31 D334N/SKP1, sequence (chain, as listed by the source D334N, chain 2 of 2): as the sequence (chain, as listed by the source, chain 2 of 2) above

B1: FL-Pep2-OH (non-amidated model peptide) (peptide)
chain: {FL}-KEEDEKGSRASDDFRDLR-OH
As to B1, the binding result in test [1] is “no binding”.

B2: FL-Pep2-NH2 (amidated model/screening peptide) (peptide)
chain: {FL}-KEEDEKGSRASDDFRDLR-NH2
A word on the Kd: it is the free concentration of one partner at which half of the binding sites on the other are occupied at equilibrium, for simple one-to-one binding. Low readings indicate tighter binding, high ones weaker binding. As to B2, the Kd in test [2] is 22 nM and 16 nM.

B3: FL-CycD1-OH (peptide)
chain: {FL}-KAATPTDVRDVDI-OH
As for B3, the binding result (in test [1]; in the test with FBXO31 D334N/SKP1) was “no binding” throughout.

B4: FL-CycD1-NH2 (peptide)
chain: {FL}-KAATPTDVRDVDI-NH2
In test [2], B4 came in with a Kd of 59 nM.
